# Where a chain is given by its changes, count along the chain named. Where two headings read alike, the source gives them in different places.
# B1: ROLpro-BXT-D1: BXT-D1 expressed fused to leader peptide ROLpro, SEQ ID NO: 21; leader removed by cleavage (protein)
# chain: DDNLVGGMTLDLPSDAPPISLSSSTNSAVALEKRDKCKKVYENYPVSKCQLANQCNYDCKLDKHARSGDCFYDAKRNLQCICDYCEY
# modifications: ROLpro leader removed by cleavage
# B2: ROLpro-BXT-D2: BXT-D2 expressed fused to leader peptide ROLpro, SEQ ID NO: 23; leader removed by cleavage (protein)
# chain: B1 chain with A74D
# modifications: ROLpro leader removed by cleavage
# B3: ROLpro-BXT-D3: BXT-D3 expressed fused to leader peptide ROLpro, SEQ ID NO: 25; leader removed by cleavage (protein)
# chain: B1 chain with A74K
# modifications: ROLpro leader removed by cleavage
# B4: ROLpro-BXT-D5: BXT-D5 expressed fused to leader peptide ROLpro, SEQ ID NO: 29; leader removed by cleavage (protein)
# chain: B1 chain with H64R
# modifications: ROLpro leader removed by cleavage
# B5: ROLpro-BXT-D4: BXT-D4 expressed fused to leader peptide ROLpro, SEQ ID NO: 27; leader removed by cleavage (protein)
# chain: B1 chain with A74R
# modifications: ROLpro leader removed by cleavage
# B6: ROLpro-BXT: Brazzein BXT expressed fused to Rhizopus oryzae lipase leader peptide ROLpro with kex2 site, SEQ ID NO: 19; leader removed by cleavage (protein)
# chain: B1 chain with D69E, A74E
# modifications: ROLpro leader removed by kex2 cleavage
# B7: ROLpro-BXT-D7: BXT-D7 expressed fused to leader peptide ROLpro, SEQ ID NO: 33; leader removed by cleavage (protein)
# chain: B1 chain with H64R, A74R
# modifications: ROLpro leader removed by cleavage
# B8: ROLpro-BXT-D6: BXT-D6 expressed fused to leader peptide ROLpro, SEQ ID NO: 31; leader removed by cleavage (protein)
# chain: B1 chain with H64R, A74K
# modifications: ROLpro leader removed by cleavage
# What was measured:
# [1] = test system: healthy evaluators; assay: Determination of sweetness threshold by human sensory evaluation; assay type: in vivo; conditions: for Sweetness fold relative to 1% sucrose: =10000/(sample sweetness threshold); for Concentration (μg/mL) corresponding to threshold: sweetness threshold, protein diluted with mineral water (pH 6.9), averaged for 10 individuals
# Procedure: Since the recombinant Brazzein of the present disclosure is not a sugar-based compound, it is impossible to measure the sweetness by using a saccharometer. Therefore, the sweetness threshold is measured using human sensory evaluation. For most people, the sweetness threshold for sugar in soft drinks is 0.32%-1.0%. To assess the sweetness threshold for each solution, an 1% sucrose solution is used as the solution with minimum concentration at which sweetness is felt, i.e., the sweetness threshold is 10000 μg/mL The sweetness potency of the Brazzein described herein relative to sucrose is generally in a range of 1:500 to 1:16,000. The samples tested included naturally extracted Brazzein (homemade, about 95% pure), recombinant Brazzein and mutants thereof, sucrose and mineral water. The protein was diluted in a gradient from 0.5 to 20 μg/ml by diluting the dry protein powder with mineral water (pH 6.9). Ten healthy evaluators (five males and five females) aged between 30 and 50 participated in the assessment, five of whom were trained wine tasters. Tasting started at the lowest concentration, with concentration increased by 1 μg/ml each time until sweetness was felt; then based on this concentration, the concentration was reduced by 0.1 μg/ml at a time until sweetness was not felt; and the sweetness threshold of the sample was determined by gradually decreasing the concentration gradient in such a way. 20 ml of samples were tested randomly compared to sugar solutions. Before each analysis, the evaluator was asked to rinse his/her mouth with water and eat the neutral crackers until there was no residual taste. The test solution was held in oral cavity for at least 10 seconds. Thereafter, evaluators provided scores against samples on the basis of their responses between 0 and 10; 0—no sweet feeling, 10—highly sweet. The final results for each protein were averaged for 10 individuals. The sweetness factor of Brazzein and mutants thereof relative to 1% sucrose=10000/(sample sweetness threshold).
# [2] = test system: healthy evaluators; conditions: 1% sucrose solution used as minimum concentration at which sweetness is felt; cited from earlier work
# [3] = aqueous solution, 80° C. for 4 hours; cited from earlier work
# [4] = cited from earlier work; for sweetness relative to sucrose of the same weight: calculated by weight, prior art; for sweetness delay: prior art CN 102498126 A
Molecule,Sweetness fold relative to 1% sucrose [1] [fold],Concentration (μg/mL) corresponding to threshold [1] [µg/mL],further results
"Brazzein (QDKCKKVYENYPVSKCQLANQCNYDCKLDKHARSGECFYDEKRNLQCICDYCEY; UniProt P56552 1-54, looked up) [Naturally extracted Brazzein, naturally extracted Brazzein (homemade, about 95% pure), reference compound]",501,20 ± 3.9,–
OC[C@H]1O[C@@](CO)(O[C@H]2O[C@H](CO)[C@@H](O)[C@H](O)[C@H]2O)[C@@H](O)[C@@H]1O [sucrose],–,–,sweetness threshold of sucrose (reference) [2]: 10000 µg/mL
"Brazzein [Brazzein] (DKCKKVYENYPVSKCQLANQCNYDCKLDKHARSGECFYDEKRNLQCICDYCEY; listed as Pentadiplandra brazzeana) [sweet protein extracted from fruits of Pentadiplandra brazzeana (Baillon), 54 amino acids, 6.5 kDa]",–,–,sweetness after heat treatment [3]: remains sweet
Brazzein [Brazzein expressed by Pichia pastoris],–,–,sweetness relative to sucrose of the same weight [4]: 40 times
Brazzein,–,–,sweetness relative to sucrose of the same weight ([4]; listed as Brazzein expressed in an Aspergillus oryzae host in patent CN102498126A): 510 times; sweetness relative to sucrose of the same weight ([4]; listed as expressed Brazzein): about 510 times; sweetness delay [4]: about 1.5 seconds; sweetness delay ([4]; listed as expressed Brazzein): obvious sweetness delay
B1,6666.7,1.5 ± 0.3,–
B2,3703.7,2.7 ± 0.5,–
B3,6250,1.6 ± 0.3,–
B4,8333.3,1.2 ± 0.2,–
B5,8333.3,1.2 ± 0.2,–
B6,613.5,16.3 ± 2.9,–
B7,16666.7,0.6 ± 0.1,–
B8,16666.7,0.6 ± 0.1,–

# Reference: patent publication US20260209285A1, “SWEET-TASTING PROTEIN BRAZZEIN MUTANT HAVING HIGH SWEETNESS AND PREPARATION METHOD THEREFOR” (NANJING BESTZYME BIO-ENGINEERING CO., LTD., priority 2022, published 2026)
